Measured values published in US20140066321A1 (PANGU BIOPHARMA, published 2014).

Legend:
[1] = molecular target: the molecule itself; assay: size exclusion chromatography (self-association, homodimer)
Experimental: The cDNA encoding native human cytoplasmic HRS and the splice variant HRSΔCD were cloned into a modified pET32 vector and fused to the N-terminal thioredoxin-His₆-tags. The fusion proteins were expressed in E. coli BL21(DE3) and first purified by Ni²⁺-NTA affinity chromatography Next, the thioredoxin-His₆-tag was removed by protease-3C digestion. The cleaved protein mixtures were further separated by a size-exclusion chromatography in a buffer containing 50 mM Tris (pH 7.5), 100 mM NaCl, 1 mM EDTA and 1 mM […] Native HRS and HRSΔCD mutants were created using the standard PCR-based mutagenesis method. The mutant proteins were purified using a protocol identical to that used for native HRS and HRSΔCD. Analytical gel filtration chromatography was carried out on an AKTA FPLC system (GE Healthcare). Proteins were loaded onto a Superose 12 10/300 GL column (GE Healthcare) equilibrated with a buffer containing 50 mM Tris (pH 7.5), 100 mM NaCl, […] EDTA and 1 mM […].

[2] = molecular target: the molecule itself; assay: X-ray crystal structure at 2.4 Å (self-association, homodimer)
Experimental: To set up a […], 1 μl of protein sample was mixed with 1 μl of crystallization solution with 0.2 M ammonium citrate. […] Before diffraction experiments, crystals were soaked in crystallization solution containing […] for cryoprotection. […] Specifically, crystals were soaked in crystallization solution containing 10-20% glycerol for 5-10 mins. The diffraction data were collected at the Shanghai Synchrotron Radiation Facility and were processed and scaled using HKL2000.
The phase was improved by density modifications with RESOLVE. The initial model was built in COOT. […] The models were refined in Refmac5 and PHENIX. […] All structure figures were prepared by PyMOL

Protein	binding result [1]	binding result [2]
human HRS variant with deletion of residues 507-509 (HRS Δ507-509) (enzyme, the row under measurements tells of its self-association into a dimer (size exclusion chromatography)) MAERAALEELVKLQGERVRGLKQQKASAELIEEEVAKLLKLKAQLGPDESKQKFVLKTPKGTRDYSPRQMAVREKVFDVIIRCFKRHGAEVIDTPVFELKETLMGKYGEDSKLIYDLKDQGGELLSLRYDLTVPFARYLAMNKLTNIKRYHIAKVYRRDNPAMTRGRYREFYQCDFDIAGNFDPMIPDAECLKIMCEILSSLQIGDFLVKVNDRRILDGMFAICGVSDSKFRTICSSVDKLDKVSWEEVKNEMVGEKGLAPEVADRIGDYVQQHGGVSLVEQLLQDPKLSQNKQALEGLGDLKLLFEYLTLFGIDDKISFDLSLARGLDYYTGVIYEAVLLQTPAQAGEEPLGVGSVAAGGRYDGLVGMFDPKGRKVPCVGLSIGVERIFSIVEQRLEALEEKIRTTETQVLVASAQKKLLEERLKLVSELWDAGIKAELLYKKNPKLLNQLQYCEEAGIPLVAIIGEQELKDGVIKLRSVTSREEVDVRREDLVEEIKRRTGQPL	binds	–
human HRS variant with deletion of residues 1-53 and residues 507-509 (HRS Δ1-53-Δ507-509) (enzyme, the row under measurements tells of its self-association into a dimer in the crystal structure) FVLKTPKGTRDYSPRQMAVREKVFDVIIRCFKRHGAEVIDTPVFELKETLMGKYGEDSKLIYDLKDQGGELLSLRYDLTVPFARYLAMNKLTNIKRYHIAKVYRRDNPAMTRGRYREFYQCDFDIAGNFDPMIPDAECLKIMCEILSSLQIGDFLVKVNDRRILDGMFAICGVSDSKFRTICSSVDKLDKVSWEEVKNEMVGEKGLAPEVADRIGDYVQQHGGVSLVEQLLQDPKLSQNKQALEGLGDLKLLFEYLTLFGIDDKISFDLSLARGLDYYTGVIYEAVLLQTPAQAGEEPLGVGSVAAGGRYDGLVGMFDPKGRKVPCVGLSIGVERIFSIVEQRLEALEEKIRTTETQVLVASAQKKLLEERLKLVSELWDAGIKAELLYKKNPKLLNQLQYCEEAGIPLVAIIGEQELKDGVIKLRSVTSREEVDVRREDLVEEIKRRTGQPL	–	binds
